This note sets out measurements from a protein production outcome set (Wang et al. 2014).

The series is described as follows: label from the status in PepcDB records.
On to “MNKKILTLLVLILSISSVLMLSKSITKKSKYKIIRDYFINSNYVLVKIENKDLKFTISKPIYDKKLNNYFFKGQTTSHFLISNNVDIAINTSPYEVKQNMFFPKGLYIYNKKMISKQINNYGEIVIKHNKIILNPKEDEIENCDYGFSGFFVLIKNGKYKKNFKETRHPRTIIGTDKNNKHLFLVTIEGRGVNNSKGASLNEAIDFALSYGMTNAINLDGGGSSTLVVKSNNAPYKLNFTANIFGQERPVPFHLGIKLPN”, for which the protein production result is reported as “failed”.

Turning to “MNKLLLVAAGGAVGSVARYLVGVGAMRVMGPGWPYGTFTVNVVGGFLMGCLASWLAHRGNTSSETWRVMLGVGVLGGFTTFSSFSLETALMIQKRAYGQAFTYSAASVLLAIAALFAGLLVARKVFA”, the protein production result is reported as “failed”.

On to “MNKSSATIMAAALMLASSCTEVKQEGQGYEPIIGKQEITIKDGRLTPEALWAMGRIGSLSISPDGKQIAYTVAYYSVPENKSHHVIYVMDADGKNNTLLTQTAWNESEPQWIKGGTKIAFLCNESGGSQIWEMNPDGTERRIISDFKGNIEGFSFSPDGKKILFISQIKYGQRTVDLYPDLPKASGIIVNDLMYKHWDEWVESIPHPFIADFDGNMMGAATDIMEGEPFEAPMKPFGGIEQLAWSNDSKQIAYTSRKKQGLAYAVSTDSDIYLYNIEKGTTLNLCKPNGKDSNGTDEMKGYDTNPKFSPNGKYIAWQSMERDGYESDRNRLCIYNLDDGQKTFVTESFESGVDDYCWNNDSQSLYFVGVWHGTSMVYSANLNGDIKKLTDGMYDYGSVAMAGDKIITKRHSISAADEIYTLTPADGQVAQLSHENDHIFKQLNLGKVEERWTKTTDGKQMLSWVIYPVNFDANKKYPTLLFCEGGPQSPVSQFWSYRWNFQIMAANDYIIIAPNRRGLPGFGMEWLEQISGDYGGQCMKDYLSAIDDISKEPYVDTNRLGCVGASFGGFSVYWLAGHHDKRFKAFIAHDGIFNMEQQYLETEEMWFANWDMGGAYWDKNNATAQRTFANSPHRFVDKWDTPILCIHGEKDYRILASQGMSAFNAAVLRGVPAELLLYPDENHWVLKPQNGVLWQRTFFSWLDKWLK”, for which the protein production entry was “failed”.

Regarding “MNLASIIGWGVGFGAILISMAFTPTGLGVFWDLSSVFITVVGSFSALMASSEVVAVKKIPTYLGFFFRRNSYAKVSIIKILVELSEKARKEGLLSLDDELEQINDPFFKSGMRLVVDGADPEVIRTMLYLELDQMQERHKVGSDLFKTWAKLAPAFGMTGTLIGLVALLGNLEDKSALGSSMAVALITTLYGTIMANLMFTPVQLKLEKIDTEEAAVKTMIIEGVLSIQSGDNPRILEQKLMTFLTPKDRSQLNSSIGGE”, the protein production entry is given as “failed”.

For “MNLDAPRVLVLNAAYEVLGLASIKRAVLLVLGGGAEMVSESGLYLNTPSTRIPVPSVVRLKRMVRRRPGRVPLNRRNVLRRDRYTCQYCGQKGGELTVDHVLPKSRGGKSTWDNLVAACRSCNLRKGDRTPEEAGMRLLRPPKPPRVPLFLLDLKEVPPDWRPFVEGLLGLEHHHHHH”, the protein production entry is given as “not failed”.

Regarding “MNLDHLYPFGFRSTLFDRLTPEYEDLKGLSIHQLRESVARDLEDLLNSRVAKMDDVLVNYPLARQSILQFGIIDFVGLSTANPMDREKICQSIEQSIAAHEPRLKQVKVEMLLDGHNMGALCLSIQAYLNIHPLYEPVVFDALLKPTTQQYVISAQT”, the protein production result was “failed”.

As for “MNLEPLRKRVRQYLDQQQYQSALFWADKVASLSHEEPQDVYWLAQCLYLTAQYHRAAHALRSRKLDKLYEACRYLAARCHYAAKEHQQALDILDMEEPINRRLFEKYLKDDNGSRDPSSDWEMSQSSIKSSICLLRGKIYDALDNRTLATYSYKEALKLDVYCFEAFDLLTSHHMLTAQEEKELLDSLPLNKLCAEEQELLRFVFENKLKKYNKPSETVIPESVDGLQENLDVVVSLAERHYYNCDFKMCYKLTSTVMEKDPFHANCLPVHIGTLVELNKANELFYLSHKLVDLYPSNPVSWFAVGCYYLMVGHKNEHARRYLSKATTLEKTYGPAWIAYGHSFAVESEHDQAMAAYFTAAQLMKGCHLPMLYIGLEYGLTNNSKLAERFFGQALSIAPEDPFVIHEVGVVAFQNGEWKTAEKWFLDALEKIKAIGNEVTVDKWEPLLNNLGHVCRKLKKYAEALDYHRQALVLIPQNASTYSAIGYIHSLMGNFENAVDYFHTALGLRRDDTFSVTMLGHCIEMYIGDSEAYIGADIKDKLKCYDFDVHTMKTLKNIISPPWDFRDFEVEKQNTEEAGLAPLQNSTKAPESRPNLEETFEIEMNESDMMLETSMSDHST”, the protein production result is on record as “failed”.

Turning to “MNLESKWLEDFSALAATRSFSQAAERRFVTQPAFSRRIRSLEAALGLVLVNRSRTPVELTAAGQLFLVTARTVVEQLGEVVRHLHHLEGGQGEVMQVAAAHSLALGFFPRWIAQLRNEGLNIATRLVATNVGDAVHALREGGCDLMLAFYDPDAALQMDAEIFPSLHLGHTEMLPVCAADAEGRPLFDMEGEASVPLLAYSTGAFLGRSVNLLLRQRNLRFTTVYETAMADSLKSMALEGLGIAWVPQLSVRAELARGELVVCGGPQWHVPLEIRLYRCALVRKANVRLLWRKLESAAPPESL”, the protein production result is “failed”.

With “MNLGQWGEIMSWLCLLPISGGIVYNLLTVFTTSLFLARSLPKQDFQPGVSVLKPVRGLEKNLEANLRTIAQQNYPAYEVIYCVQDPQDPALPIVKKLQAEFGPEKIIVAVHQIEQGANGKVNNLLGGLKHAKYDILVISDSDTNLRPDYLATMVSPLGDRLVGCVTTPFKLTQAQTWYEGLELLSINADFMPSVLFAEVTGASKACLGPSIAIRRSTLTEIGGLESLADYLVEDFELGQRVWTGGLKMVLLPYVIDAGVNLDNWTNWWSHQLYWDQNTYLARPLPFLATIIIRAVPFAFLFTFCHWSEPWAWLILFITLATRYGTAAIVAQELKDGETIRYLPLLLLRDCFGLVFWALSFSQRQVLWRGITYRLTKGGKMIPASPIPKS”, the protein production entry is recorded as “failed”.

On to “MNLKQISAIIIVKNAKQTLLECLNSLKDFDEIILLNNESSDNTLNIANEFKKDFANLHIYHSAFIGFGALKNLALSYAKNDWILSIDADEVLENECIKELKNLELQEDNIIALSRKNLYKGEWIKACGWWPDYVWRIFNKNFTRFNDNLVHESLVLPSNAKKIYLKNGLRHYAFRDISHLIDKMQYYSSLWAKQNIHKKSGVLKANLRAFWTFFRNYFLKNGFLYGYKGFIISVCNALGTFFKYMKLYELQKQKPKTCALIITTYNQKERLKLVLDSVKNLAFLPNEVLIADDGSKEDTARLIEEYQKDFPCPLKHIWQEDEGFRAAKSRNNAIKASKSEYIILIDGDMILEKDFVKNHLEFAKRKVILQGSRVILNKNESEEILKNNNYSLAFNKKGFKNQRSIFLAKCVYKFSKLTKKFFKKSQLVKGSKTCNMSFYKSDFEAIEGFNEKFIGWGREDSEFVARFLFNDGVFKRLKFNALAYHIYHEENSKNMLEINHQIYLETIKNEKTTWRLEHHHHHH”, for which the protein production result is listed as “failed”.

For “MNLLPKTREEFAQTDYWNEFFKKRGEKAFEWYGEYLELCDQIHKYIKPADRILMLGCGNSKLSMDMYDTGFRDITNIDISPIAVKKMLELNAKSRPEMKFLQMDATAMTFPDESFSVSLDKGTLDALFADDEPETRAVVENYFKEILRTMRNGGRYVGISLLQEHILNFLLDFLPKHNCMLRIVHCLGVEQANKEKNADDALTLPVFVVVATKFKSLPMPVLEFGFGNDKMQRFTTVSELNSAVSSVQKAALVCNGLARSNIAGHNEVIMDLHRPSEQTPRYTIHILDKPPARGLGKYAAFIVPQGREVEWIFSTPAGRKKLQDSANFQRLAVVTLHRDQVYSTLDEVKQELADSIKNLSPAGLTDQIPYLSLGSDVGKRETLICGFSKISGDFRIEEVEANGKTLRRLIFLSNQFVVQSEALVKTVKIKGKKDRKKIDFGYLACQHHLYMSVGVQLATTVQHPKRDVEKDVLVVGLGGGGLCSFLHAALPQARITAVEIDPIMLEVAEQYFELKQDKRFHVVIDDGLDFVERCRNEDIHFDAVLFDVDSKDLSLGMSCPPQSFLATKILQHIKEIIGPKGLFMLNLVCRDESLRTEALNNLHKVFPAVCSYKLEEDINEIIYCANDEKYKTVEQWKKNMGTAGRGLNSAVKETKLASEDALEVAEFLSELKI”, the protein production entry is recorded as “failed”.

Consider “MNLNAKKTTTAVQSASENPKLRVMPKQLFSRTPVLAGGNAAAKREEIREYFHSTLDRYEQLFETLRGDAAYFKKPISLRHPLIFYLGHTATFFTNKLLLAGLITDRINPKMESMFAVGVDEMSWDDLDTTHYDWPSVEEVRAYRRRMRETVDRLIRETPLTLPIEWDSPWWTIMMGIEHERIHLETSSVLIRQHALEHVAPHPAWEPCRKSGPAPDNQLVKVPEGTVQLGKKKDDPFYGWDNEYGTHIADVAAFEAGKYLVSNQEFLEFVQADGYETESYWEEEGRAWLKHAGAKHPTFWIRRGGEWELRLMTKEISMPWDWPVEVNYHEAKAFCNWKAAVSGQPYRLPTEDEWYRLYEVAGLSEVPAAAPAMANIHLDHGASSHPVNEFAQGDFYDVVGNVWQWTETPIYPFDGFDVHPHYDDFTTPTFDGRHNLIKGGSWISCGNESLKNSRYAFRRHFFQHAGFRYVVGTAPAIQHGSHYETDKLLSEYAEFHYGDTYFDVPNFPKALAELAIAAMGDKPAHKALDLGCASGRAAFELARHFDEVTGVDFSARFIGQGVQLASQGVLRYTLADEGDLVLYRERTLAGLGLDGVRHKVAFYQGDACNLKPIYTGYDLILAANLIDRLYDPAKLLTSIHTRINSGGILLIASPYTWLEEHTKREAWIGGFKRDGESFGTLDGLKEILGAHFRLIQGPTEVPFVIRETRRKFQHTLSEVTIWEKTA”, for which the protein production result is “failed”.

As to “MNLPNKLTVLRIFMIPIFIIIVSVPMDWGTISFGDTTLAVTQLVGAIIFAVASFTDWLDGKIARAQGLVTNFGKFADPLADKMLVMTAFIVLVGQGKVPAWIVAIIVCRELAVTGLRLLLVEHGEVMAAAWPGKVKTATQMVAIILLFINNIPFSALHLPLDQIMLYACLIFTIYSGVDYFAKNKDVFKGSM”, the protein production entry is on record as “failed”.

As to “MNLPSRQWSSEVRQLVFIGFSAITAVVLSYSYVATVGLSEMLFAIVGAGLLLALVVILPVILLD”, the protein production result is on record as “failed”.

For “MNLRPYQHTIVDFILTHPRCNLFVPMGLGKTVATLTALDVLLVVEDIAPILVIAPLRVAATTWPDEVAKFPHLRHLRVSVVVGSAAARRHALEQEADIYCINYDTLKWLVEFYKDRWPFRMVVADECSKLKGFRLRQGTRRARALATHVHTKVERYVGLTGTPAPNGLQDLWALMWMVDRGARLGTHFKAFIDRWFRAMQIGSDPHAVRFVPTPHASQEIQDKIRDICLSLDPHAYFDLCQPIVNTIRVALPAHAQRLYKAMEQDMFIALECGAEVEAFNAASKTIKCLQLANGALYTDDTRQAWEVVHDAKLEALHDIIEEAAGMPVLVAYHFKSDVARLQRAFPKGRALDKHPDTIRDWNAGNIPVLFAHPASAGHGLNLQDGGNILAFFGHWWDLEQYQQIIERIGPTRQAQAGHTRPVFIHHIVAAGTVDELVMARRESKREVQDLLLEAVKRRETGKPLTSQGAIAL”, the protein production entry was “failed”.

For the sequence “MNLSQQNQHSNPITEAAKATFPYSVPMIAGFLFLGIAYGIYMKALGFGFLYPTLMALLIYAGSVEFIAAGALIAPFSPISVLLITLMISARQIFYGISMLEKYGIHIGKKRWYLITTLVDESFSLNYMAKIPPHLDKGWYMFFVSLYLHIYWVLGAAMGNLFGTVLPFNLKGVEFSMTALFLVIFAENWLKGKSHESSLLGLGIALVFLLIIGKEYFLIPTLIGIWLILTMRITKLETKLESLK”, the protein production entry was “failed”.

“MNLSSASSTEEKAVTTVLWGCELSQERRTWTFRPQLEGKQSCRLLLHTICLGEKAKEEMHRVEILPPANQEDKKMQPVTIASLQASVLPMVSMVGVQLSPPVTFQLRAGSGPVFLSGQERYEASDLTWEEEEEEEGEEEEEEEEDDEDEDADISLEEQSPVKQVKRLVPQKQASVAKKKKLEKEEEEIRASVRDKSPVKKAKATARAKKPGFKK”: the protein production entry is “failed”.

For “MNLVGIVGTNSERSTNRKLLRFMAEHFAPQAAIEVLEIKDLPAFDEPENKTAPAAVTAFSKKIAAADGVIIATPEYNHTIPAPLGSALEWIAYTSRVLVNKPVMIVGCSLGALGTSRAQAHLRQILDAPELKARVMPGTEFFLGHSEHVLDDDFNLNNPEKVAELEEHFTEFQDFVIVTNQIVKQADTDRKLEHHHHHH”, the protein production entry is on record as “not failed”.
